B1: Beta-crystallin A4 (Homo sapiens), P53673 (parent)
chain: MTLQCTKSAGPWKMVVWDEDGFQGRRHEFTAECPSVLELGFETVRSLKVLSGAWVGFEHAGFQGQQYILERGEYPSWDAWGGNTAYPAERLTSFRPAACANHRDSRLTIFEQENFLGKKGELSDDYPSLQAMGWEGNEVGSFHVHSGAWVCSQFPGYRGFQYVLECDHHSGDYKHFREWGSHAPTFQVQSIRRIQQ
partner: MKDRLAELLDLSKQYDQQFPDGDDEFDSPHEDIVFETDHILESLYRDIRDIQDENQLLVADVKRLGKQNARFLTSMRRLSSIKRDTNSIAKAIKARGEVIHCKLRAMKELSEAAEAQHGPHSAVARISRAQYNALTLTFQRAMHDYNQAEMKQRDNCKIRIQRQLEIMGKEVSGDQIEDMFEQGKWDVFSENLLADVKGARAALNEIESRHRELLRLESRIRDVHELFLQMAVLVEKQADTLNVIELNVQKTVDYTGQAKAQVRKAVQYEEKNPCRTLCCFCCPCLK
B2: Tribbles homolog 3 (Homo sapiens), Q96RU7 (parent)
chain: MRATPLAAPAGSLSRKKRLELDDNLDTERPVQKRARSGPQPRLPPCLLPLSPPTAPDRATAVATASRLGPYVLLEPEEGGRAYQALHCPTGTEYTCKVYPVQEALAVLEPYARLPPHKHVARPTEVLAGTQLLYAFFTRTHGDMHSLVRSRHRIPEPEAAVLFRQMATALAHCHQHGLVLRDLKLCRFVFADRERKKLVLENLEDSCVLTGPDDSLWDKHACPAYVGPEILSSRASYSGKAADVWSLGVALFTMLAGHYPFQDSEPVLLFGKIRRGAYALPAGLSAPARCLVRCLLRREPAERLTATGILLHPWLRQDPMPLAPTRSHLWEAAQVVPDGLGLDEAREEEGDREVVLYG
partner: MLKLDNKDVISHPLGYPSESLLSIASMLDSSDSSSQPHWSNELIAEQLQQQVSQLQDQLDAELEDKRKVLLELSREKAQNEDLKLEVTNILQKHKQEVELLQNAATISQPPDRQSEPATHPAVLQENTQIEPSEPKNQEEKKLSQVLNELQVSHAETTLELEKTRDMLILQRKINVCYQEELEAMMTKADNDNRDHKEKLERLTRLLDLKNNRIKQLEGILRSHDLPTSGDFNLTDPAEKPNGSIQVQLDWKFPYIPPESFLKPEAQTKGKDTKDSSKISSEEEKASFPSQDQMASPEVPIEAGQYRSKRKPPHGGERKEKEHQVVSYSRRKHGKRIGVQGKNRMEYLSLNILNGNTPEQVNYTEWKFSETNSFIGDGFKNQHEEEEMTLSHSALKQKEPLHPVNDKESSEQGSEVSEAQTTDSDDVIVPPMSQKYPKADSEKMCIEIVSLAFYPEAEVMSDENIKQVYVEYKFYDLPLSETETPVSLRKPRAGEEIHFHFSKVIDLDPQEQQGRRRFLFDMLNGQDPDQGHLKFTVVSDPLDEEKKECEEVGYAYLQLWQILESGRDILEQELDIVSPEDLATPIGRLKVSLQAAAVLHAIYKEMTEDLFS
B3: Glial cell line-derived neurotrophic factor (Homo sapiens), P39905 (parent)
chain: MKLWDVVAVCLVLLHTASAFPLPAGKRPPEAPAEDRSLGRRRAPFALSSDSNMPEDYPDQFDDVMDFIQATIKRLKRSPDKQMAVLPRRERNRQAAAANPENSRGKGRRGQRGKNRGCVLTAIHLNVTDLGLGYETKEELIFRYCSGSCDAAETTYDKILKNLSRNRRLVSDKVGQACCRPIAFDDDLSFLDDNLVYHILRKHSAKRCGCI

The values below come from IntAct's records for PubMed 25910212.

Variants of B1 are the subject of one experiment. The conditions noted are these: with stx11_human STX11, O75558.
Turning to V36M, the “effect of a mutation on the interaction” value was “disrupting interaction strength”.

L69P: the “effect of a mutation on the interaction” value is “disrupting interaction strength”.

Regarding F94S, the “effect of a mutation on the interaction” value is “disrupting interaction strength”.

The variants in a further experiment derive from B2. The conditions noted are these: with RPGRIP1, Q96KN7-4.
For the variant Q84R, the “effect of a mutation on the interaction” value is recorded as “with no effect”.

In another experiment the parent is B3. Particulars: with AGTRAP.
On to R93W, for which the “effect of a mutation on the interaction” value was “with no effect”.

P21S: the “effect of a mutation on the interaction” value is “with no effect”.

In the case of T154S, the “effect of a mutation on the interaction” value is reported as “with no effect”.

With D150N, the “effect of a mutation on the interaction” value was “with no effect”.
